{
  "source": "paper PMC10623103",
  "about": "“A case of hyperlysinemia identified by urine newborn screening” (JIMD Reports, 2023)",
  "proteins": {"B1": {"name": "2-aminoadipic semialdehyde synthase (AASS) lysine 2-oxoglutarate reductase (LOR) domain, p.T371I variant, His-SUMOstar-LOR [residues 21-470] (domain or fragment, human, UniProt Q9UDR5 21-470, looked up)", "chain": "HHKAVLAVRREDVNAWERRAPLAPKHIKGITNLGYKVLIQPSNRRAIHDKDYVKAGGILQEDISEACLILGVKRPPEEKLMSRKTYAFFSHTIKAQEANMGLLDEILKQEIRLIDYEKMVDHRGVRVVAFGQWAGVAGMINILHGMGLRLLALGHHTPFMHIGMAHNYRNSSQAVQAVRDAGYEISLGLMPKSIGPLTFVFTGTGNVSKGAQAIFNELPCEYVEPHELKEVSQTGDLRKVYGTVLSRHHHLVRKTDAVYDPAEYDKHPERYISRFNTDIAPYTTCLINGIYWEQNTPRLLTRQDAQSLLAPGKFSPAGVEGCPALPHKLVAICDISADTGGSIEFMTECTIIEHPFCMYDADQHIIHDSVEGSGILMCSIDNLPAQLPIEATECFGDMLYPYVEEMILSDATQPLESQNFSPVVRDAVITSNGTLPDKYKYIQTLRESRE", "notes": "2-aminoadipic semialdehyde synthase (AASS), LOR domain, residues 21-470, patient variant c.1112C>T (p.T371I); Purified as uncut SUMOstar-LOR; calculated MW of the His-SUMOstar-LOR monomer is 62.4 kD; PDB 8E8U is the wild-type LOR structure (cited); also called I371 variant; LOR variant; source: E. coli LOBSTR cells, purified (IMAC, size-exclusion chromatography on Superdex200 Increase); not …"}},
  "target": "the molecule itself",
  "test": "SEC; Superdex200 Increase on an AKTA FPLC after IMAC; uncut His-SUMOstar-LOR; elution compared with the expected tetrameric size and the aggregation peak",
  "data": [
    {"protein": "B1", "values": [
      {"measurement": "binding result", "result": "binds"}
    ]}
  ]
}
